In this assay the target is human serum albumin (human, UniProt P02768 25-609). Nature of the assay: SPR. For orientation: Surface plasmon resonance follows binding to a sensor surface in real time, without labels.

B1: mutant TRX protein E2 (HSA binder, purified) (designed binder)
chain: MVKQIESKTAFQEALDAAGDKLVVVDFSATKNEKRDVAEWSGPSKMIKPFFHSLSEKYSNVIFLEVDVDDAQDVASEAFGFFGFPVLPTFQFFKKGQKVGEFSGANKEKLEATINELV
As to B1, the Kd (as a rule, the concentration at which binding is half-saturated) is 830 nM.

B2: RLuc-E2 (other)
chain: B1 chain
In turn, B2 yielded a Kd of 1300 nM.

B3: RLuc-F3 (other)
chain: MVKQIESKTAFQEALDAAGDKLVVVDFSATGGTPGRRNRWSGPSKMIKPFFHSLSEKYSNVIFLEVDVDDAQDVASEAFCEFCFPFLPTFQFFKKGQKVGEFSGANKEKLEATINELV
As to B3, the Kd stood at 640 nM.

B4: mutant TRX protein F3 (HSA binder, purified) (designed binder)
chain: B3 chain
Consider B4, for which binding was put at a Kd of 520 nM.

B5: RLuc-H6 (other)
chain: MVKQIESKTAFQEALDAAGDKLVVVDFSATDRKPWKTRGWSGPSKMIKPFFHSLSEKYSNVIFLEVDVDDAQDVASEAFGLFSFPLLPTFQFFKKGQKVGEFSGANKEKLEATINELV
With B5, the dissociation constant (Kd) was 2460 nM.

B6: mutant TRX protein H6 (HSA binder, purified) (designed binder)
chain: B5 chain
The molecule B6 registered a Kd of 870 nM.
